# Data published in article PMC2504306 (Nucleic Acids Research, 2008).
# Read-outs that look alike come from different tables or passages of the source.
# T1: C-terminal topoisomerase domain of Sulfolobus solfataricus reverse gyrase TopR1 (Sulfolobus solfataricus P2, UniProt Q97ZZ8 605-1242)
# T1 sequence (looked up): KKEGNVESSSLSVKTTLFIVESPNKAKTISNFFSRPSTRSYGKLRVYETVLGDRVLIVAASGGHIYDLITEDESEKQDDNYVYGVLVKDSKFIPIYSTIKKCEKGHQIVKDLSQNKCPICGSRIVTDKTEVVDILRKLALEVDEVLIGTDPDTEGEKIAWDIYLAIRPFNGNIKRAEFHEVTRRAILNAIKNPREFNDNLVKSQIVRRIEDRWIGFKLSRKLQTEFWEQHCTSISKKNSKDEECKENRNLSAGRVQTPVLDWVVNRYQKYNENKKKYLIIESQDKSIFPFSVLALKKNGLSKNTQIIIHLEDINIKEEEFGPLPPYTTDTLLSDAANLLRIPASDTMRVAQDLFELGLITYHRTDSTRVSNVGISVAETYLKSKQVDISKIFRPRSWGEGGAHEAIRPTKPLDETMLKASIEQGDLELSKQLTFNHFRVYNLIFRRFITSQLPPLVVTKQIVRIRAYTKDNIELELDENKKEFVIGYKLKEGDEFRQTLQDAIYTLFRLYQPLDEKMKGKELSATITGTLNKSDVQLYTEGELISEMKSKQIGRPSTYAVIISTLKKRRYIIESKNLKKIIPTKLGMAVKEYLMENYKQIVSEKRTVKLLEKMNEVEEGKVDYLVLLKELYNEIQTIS
# Tests used:
# Test in all cases: SPR
# [1] = biological target: C-terminal topoisomerase domain of Sulfolobus solfataricus reverse gyrase TopR1 (Sulfolobus solfataricus P2) (UniProt Q97ZZ8)
# [2] = biological target: T1, C-terminal topoisomerase domain of …
# [3] = biological target: T1, C-terminal topoisomerase domain of …; remark: listed apart in the source
# [4] = biological target: T1, C-terminal topoisomerase domain of …; remark: listed apart in the source
Molecule,Ka [1] [M⁻¹],Kd [1] [µM],koff [1] [s⁻¹],kon [1] [M⁻¹ s⁻¹],Ka [2] [M⁻¹],Kd [2] [µM],koff [2] [s⁻¹],kon [2] [M⁻¹ s⁻¹],Ka [3] [M⁻¹],Kd [3] [µM],koff [3] [s⁻¹],kon [3] [M⁻¹ s⁻¹],Ka [4] [M⁻¹],Kd [4] [µM],koff [4] [s⁻¹],kon [4] [M⁻¹ s⁻¹]
non-specific DNA-binding protein Smj12 of S. solfataricus (natural protein),284,3530,0.00313,0.887,–,–,–,–,–,–,–,–,–,–,–,–
"N-terminal ATPase (helicase-like) domain of Sulfolobus solfataricus reverse gyrase TopR1 (domain or fragment, Sulfolobus solfataricus P2, UniProt Q97ZZ8 1-607, looked up) MTSINKVPPSIYTRSCPNCGGNISSQRLFNGSVCESCLKDDREFSNLSDLINILSENSNLKNLTQIRDVLEEYKKVEEIFGKLLNNSKPIGPQRSWTIRFLRGESFAIIAPPGLGKTTFGLIMSLYNATRNRKSIIIFPTRTLISQTVDKLAKFSELYSYSPRILYNKQSPTQTENILDQLKSGNFDIFISTNRFVIQNLSELSNIKFDFIFVDDVDAALKSGKSAKAILRLVGFTDEDIQTTMKLLRENIGEEEKFGKIQEIRESRLKDKIVIFSSATISRGNPILSSLMGFRPGSSVIYLRNIYDSYIDLTQTCKGQDFEECTLGTVIKLLKRLNDGTLIFVPIDKGAQYADYLASNLRDHGINVESVASSSISKLEKFERGEVSSLVGVATHYGVLVRGIDLPWRVKYSIFVGIPKFKFKIGEYMHPLALTRLLSLVYLVKNDDKVRGLLSYIRKRLRKISPAALAMLAKDIREGKIDDERLKEAYNLVNEYLKDNEFLKKVSDVGDLVIEGDYILMPDYLTYIQASGRTSRLYGANLTTGLSVLLIDNSRLFELLNKKLNLILDEVKWYSLDIDADKLGQVSLSDISAKITEERESLSKIKKE",–,–,–,–,2.87e+06,0.349,0.00152,4350,6.32e+06,0.158,0.00109,6900,7.59e+06,0.132,0.00187,14200
